Measurements taken from paper PMC5426849 (Molecular Biology of the Cell, 2017).
Non-standard residues stand in square brackets, D forms with d. No end group written: not given here. Flu = 5-carboxyfluorescein, coupled after removal of the final Fmoc group; pY = N[C@@H](Cc1ccc(OP(=O)(O)O)cc1)C(=O)O

B1: Arg SH2 domain, monomeric, cleaved from GST (domain or fragment)
chain: WYHGPVSRSAAEYLLSSLINGSFLVRESESSPGQLSISLRYEGRVYHYRINTTADGKVYVTAESRFSTLAELVHHHSTVADGLVTTLHYPA
B3: fluoresceinated cortactin phospho-Y421 peptide (peptide)
peptide: Flu-SSPI[pY]EDAA

Legend:
[1] = target: Src SH2 domain, monomeric, cleaved from GST (human, UniProt P12931 151-248); assay: fluorescence polarisation
[2] = target: Nck1 SH2 domain, monomeric, cleaved from GST (human, UniProt P16333 282-376); assay: fluorescence polarisation
[3] = target: Brk SH2 domain, monomeric, cleaved from GST (human, UniProt Q13882 78-170); assay: fluorescence polarisation
[4] = target: Fyn SH2 domain, monomeric, cleaved from GST (human, UniProt P06241 149-246); assay: fluorescence polarisation
[5] = target: T1, Vav2 SH2 domain, monomeric, cleaved from GST (human, UniProt P52735 673-767); assay: fluorescence polarisation
T1 sequence: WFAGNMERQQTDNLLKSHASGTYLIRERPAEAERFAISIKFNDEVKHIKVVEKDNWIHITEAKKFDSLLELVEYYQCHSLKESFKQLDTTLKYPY

[6] = target: T2, Nap4/SOCS7 SH2 domain, monomeric, cleaved from GST (human, UniProt O14512 400-509); assay: fluorescence polarisation
T2 sequence: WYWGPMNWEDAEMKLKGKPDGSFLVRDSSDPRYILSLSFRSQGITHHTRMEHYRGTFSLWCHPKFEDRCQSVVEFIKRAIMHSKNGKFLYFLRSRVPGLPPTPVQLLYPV

[7] = target: B1; assay: fluorescence polarisation
[8] = target: B3; assay: fluorescence polarisation
[9] = target: T3, purified recombinant full-length Vav2 (human, UniProt P52735 1-878); assay: pull-down
T3 sequence: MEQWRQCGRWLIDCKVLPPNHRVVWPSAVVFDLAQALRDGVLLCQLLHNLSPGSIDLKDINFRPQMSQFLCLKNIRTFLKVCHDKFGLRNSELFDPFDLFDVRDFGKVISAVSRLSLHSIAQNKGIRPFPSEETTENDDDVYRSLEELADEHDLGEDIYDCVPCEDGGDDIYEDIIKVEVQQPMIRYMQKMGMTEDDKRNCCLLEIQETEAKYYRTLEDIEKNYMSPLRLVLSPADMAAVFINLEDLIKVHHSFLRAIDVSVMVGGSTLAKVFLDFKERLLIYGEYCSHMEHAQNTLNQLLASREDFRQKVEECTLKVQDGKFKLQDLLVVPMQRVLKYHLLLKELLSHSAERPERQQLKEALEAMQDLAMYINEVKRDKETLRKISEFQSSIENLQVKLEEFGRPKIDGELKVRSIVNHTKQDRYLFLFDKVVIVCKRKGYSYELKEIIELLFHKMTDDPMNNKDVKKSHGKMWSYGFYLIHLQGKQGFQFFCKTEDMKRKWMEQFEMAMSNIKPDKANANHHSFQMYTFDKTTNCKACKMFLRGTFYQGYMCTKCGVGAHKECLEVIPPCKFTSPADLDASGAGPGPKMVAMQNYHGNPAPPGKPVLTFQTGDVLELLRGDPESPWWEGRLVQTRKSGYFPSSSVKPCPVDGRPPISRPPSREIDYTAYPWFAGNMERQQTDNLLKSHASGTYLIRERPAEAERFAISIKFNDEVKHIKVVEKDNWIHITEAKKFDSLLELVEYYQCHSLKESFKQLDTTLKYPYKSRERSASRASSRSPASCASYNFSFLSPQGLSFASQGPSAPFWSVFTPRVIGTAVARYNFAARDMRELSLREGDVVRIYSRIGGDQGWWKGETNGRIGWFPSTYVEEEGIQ

## Flu-EDDT[pY]DGYE [fluoresceinated cortactin phospho-Y482 peptide]
[1]
  Kd: > 5 µM
[2]
  Kd: > 5 µM
[3]
  Kd: > 5 µM
[4]
  Kd: > 5 µM
[5]
  Kd: > 5 µM
[6]
  Kd: > 5 µM
[7]
  Kd: > 5 µM

## B1
[8]
  fold greater affinity than for the phospho-Y466 peptide: 2.5 fold

B2: phosphorylated cortactin (natural protein)
chain: not shown
modifications: phosphotyrosine (confirmed by anti-phosphotyrosine Western blot; sites of this preparation not stated)
[9]
  Kd: 1.5 ± 0.3 µM

## B3
[1]
  binding result: binds
[2]
  binding result: binds
[3]
  binding result: binds
[4]
  binding result: binds
[6]
  binding result: binds
